According to PMC11573645:

These substances were tested against complement component C3b, site-specifically biotinylated at Cys-1010 (human) (UniProt P01024) (assay: SPR).
“recombinant FB with D279G and K350N (from UniProt P00751 26-764) (natural protein)” showed a Ka-1 (two-state model, first step, association) of 225000 M⁻¹ s⁻¹, a Kd-1 (two-state model, first step, dissociation) of 0.0526 s⁻¹ and a Kd-2 (two-state model, second step, reverse) of 0.0045 s⁻¹.
Work on “recombinant wild-type FB (from UniProt P00751 26-764) (natural protein)” yielded a Ka-1 (two-state model, first step, association) of 325000 M⁻¹ s⁻¹, a Kd-1 (two-state model, first step, dissociation) of 0.0796 s⁻¹ and a Kd-2 (two-state model, second step, reverse) of 0.0138 s⁻¹.
“recombinant FB with D279G, K350N, and S699A (from UniProt P00751 26-764) (natural protein)” was tested, and the Ka-1 (two-state model, first step, association) was 256000 M⁻¹ s⁻¹, the Kd was 104 nM and the Kd-1 (two-state model, first step, dissociation) was 0.0469 s⁻¹. For the same substance, the Kd-2 (two-state model, second step, reverse) was 0.00836 s⁻¹.
In the case of “recombinant FB with F286L mutation (from UniProt P00751 26-764) (natural protein)”, the Ka-1 (two-state model, first step, association) is reported as 551000 M⁻¹ s⁻¹, the Ka-2 (two-state model, second step, forward) is reported as 0.0289 s⁻¹ and the Kd-1 (two-state model, first step, dissociation) is reported as 0.0229 s⁻¹. The Kd-2 (two-state model, second step, reverse) was 0.0083 s⁻¹.
With “recombinant FB with K350N mutation (from UniProt P00751 26-764) (natural protein)” the Ka-1 (two-state model, first step, association) was 131000 M⁻¹ s⁻¹, the Kd was 322 nM and the Kd-1 (two-state model, first step, dissociation) was 0.0995 s⁻¹. For the same substance, the Kd-2 (two-state model, second step, reverse) was 0.00419 s⁻¹.
“recombinant FB with K323E mutation (from UniProt P00751 26-764) (natural protein)” gave a Ka-1 (two-state model, first step, association) of 280000 M⁻¹ s⁻¹, a Kd of 159 nM and a Kd-1 (two-state model, first step, dissociation) of 0.0807 s⁻¹. It also gave a Kd-2 (two-state model, second step, reverse) of 0.00723 s⁻¹.
Work on “Native FB purified from human serum (natural protein)” yielded a Ka-1 (two-state model, first step, association) of 168000 M⁻¹ s⁻¹, a Kd of 109 nM and a Kd-1 (two-state model, first step, dissociation) of 0.0702 s⁻¹. For the same substance, the Kd-2 (two-state model, second step, reverse) was 0.00249 s⁻¹.
“recombinant FB with D279G mutation (from UniProt P00751 26-764) (natural protein)” was tested, and the Ka-1 (two-state model, first step, association) was 304000 M⁻¹ s⁻¹, the Kd-1 (two-state model, first step, dissociation) was 0.0376 s⁻¹ and the Kd-2 (two-state model, second step, reverse) was 0.00941 s⁻¹.
